One molecule from paper doi:10.1101/400432, “The deadly touch: protein denaturation at the water-air interface and how to prevent it” (bioRxiv, 2018) can be followed below.

Series [1] deals with the molecule itself. Put plainly: cryo-EM structure; single-particle cryo-EM of purified FAS complex (0.2 mg/ml) on Quantifoil R0.6/1 grids coated with graphene hydrophilized with 1-pyrCA; about 28,000 particles; maps at 4.8 Å (C1) and 4.0 Å (D3).
In series [2] the target is T1, fatty acid synthase subunit encoded by FAS1, twinStrep-II tagged (Saccharomyces cerevisiae) (S. cerevisiae, UniProt P07149 1-2051).
T1 construct: Fatty acid synthase subunit encoded by the FAS1 gene, S. cerevisiae; expressed from plasmid pMF639 (pRS315_FAS1-twinStrep-II); also called strep-tagged FAS; beta (beta-domes)
Described as above. Particulars: both partners purified.

T1 sequence (P07149 whole entry): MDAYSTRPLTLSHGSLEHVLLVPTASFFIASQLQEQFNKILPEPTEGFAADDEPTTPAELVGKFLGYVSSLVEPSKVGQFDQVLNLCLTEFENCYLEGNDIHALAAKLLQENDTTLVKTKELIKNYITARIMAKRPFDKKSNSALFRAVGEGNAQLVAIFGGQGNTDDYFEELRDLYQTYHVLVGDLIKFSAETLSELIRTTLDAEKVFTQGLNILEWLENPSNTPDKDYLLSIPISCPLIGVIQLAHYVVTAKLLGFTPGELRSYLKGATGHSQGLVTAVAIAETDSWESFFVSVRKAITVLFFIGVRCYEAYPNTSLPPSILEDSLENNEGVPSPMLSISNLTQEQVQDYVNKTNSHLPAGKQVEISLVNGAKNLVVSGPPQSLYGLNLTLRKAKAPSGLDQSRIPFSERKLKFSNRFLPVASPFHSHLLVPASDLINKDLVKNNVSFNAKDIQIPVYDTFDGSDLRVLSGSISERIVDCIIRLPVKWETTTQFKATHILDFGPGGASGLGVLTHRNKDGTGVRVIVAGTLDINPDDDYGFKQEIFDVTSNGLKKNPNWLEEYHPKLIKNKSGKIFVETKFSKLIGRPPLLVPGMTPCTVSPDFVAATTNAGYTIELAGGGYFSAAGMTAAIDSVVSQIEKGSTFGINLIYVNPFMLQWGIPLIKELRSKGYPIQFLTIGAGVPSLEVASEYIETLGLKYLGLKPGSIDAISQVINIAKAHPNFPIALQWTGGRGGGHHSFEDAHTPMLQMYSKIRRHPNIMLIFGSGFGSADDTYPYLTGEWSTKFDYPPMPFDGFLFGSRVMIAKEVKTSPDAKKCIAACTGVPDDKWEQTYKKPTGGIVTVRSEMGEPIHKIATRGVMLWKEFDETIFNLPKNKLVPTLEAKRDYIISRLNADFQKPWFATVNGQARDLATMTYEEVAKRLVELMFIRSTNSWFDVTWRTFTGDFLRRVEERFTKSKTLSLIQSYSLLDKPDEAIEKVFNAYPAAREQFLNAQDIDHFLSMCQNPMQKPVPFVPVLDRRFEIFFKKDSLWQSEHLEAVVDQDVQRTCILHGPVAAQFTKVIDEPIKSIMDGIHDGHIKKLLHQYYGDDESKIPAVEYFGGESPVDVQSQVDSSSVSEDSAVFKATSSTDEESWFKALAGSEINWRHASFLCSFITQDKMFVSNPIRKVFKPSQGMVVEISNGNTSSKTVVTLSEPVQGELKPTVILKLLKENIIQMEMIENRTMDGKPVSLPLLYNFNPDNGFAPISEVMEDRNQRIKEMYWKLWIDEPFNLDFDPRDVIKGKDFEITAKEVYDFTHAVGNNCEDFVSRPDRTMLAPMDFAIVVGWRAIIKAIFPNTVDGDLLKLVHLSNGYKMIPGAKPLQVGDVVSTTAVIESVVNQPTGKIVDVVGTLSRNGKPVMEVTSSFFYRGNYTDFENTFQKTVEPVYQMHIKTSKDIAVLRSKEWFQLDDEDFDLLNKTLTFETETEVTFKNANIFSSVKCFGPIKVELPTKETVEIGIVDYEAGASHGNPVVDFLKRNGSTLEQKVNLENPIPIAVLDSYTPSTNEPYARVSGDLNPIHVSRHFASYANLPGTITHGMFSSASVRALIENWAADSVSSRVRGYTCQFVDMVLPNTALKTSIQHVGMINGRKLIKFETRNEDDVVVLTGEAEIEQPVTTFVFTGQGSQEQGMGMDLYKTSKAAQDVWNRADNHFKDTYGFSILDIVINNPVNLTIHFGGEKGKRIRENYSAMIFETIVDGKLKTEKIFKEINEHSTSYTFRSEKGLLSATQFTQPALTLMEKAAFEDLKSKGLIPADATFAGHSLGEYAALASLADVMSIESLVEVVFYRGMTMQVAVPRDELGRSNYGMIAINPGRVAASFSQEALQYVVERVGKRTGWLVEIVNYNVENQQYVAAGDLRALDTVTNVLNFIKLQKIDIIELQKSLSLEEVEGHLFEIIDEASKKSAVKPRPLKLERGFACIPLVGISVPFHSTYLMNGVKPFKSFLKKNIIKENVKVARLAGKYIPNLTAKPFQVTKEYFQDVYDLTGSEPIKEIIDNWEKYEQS

B1: fatty acid synthase subunit encoded by FAS2 (Saccharomyces cerevisiae) (enzyme, S. cerevisiae, UniProt P19097 1-1887, looked up)
chain: MKPEVEQELAHILLTELLAYQFASPVRWIETQDVFLKDFNTERVVEIGPSPTLAGMAQRTLKNKYESYDAALSLHREILCYSKDAKEIYYTPDPSELAAKEEPAKEEAPAPTPAASAPAPAAAAPAPVAAAAPAAAAAEIADEPVKASLLLHVLVAHKLKKSLDSIPMSKTIKDLVGGKSTVQNEILGDLGKEFGTTPEKPEETPLEELAETFQDTFSGALGKQSSSLLSRLISSKMPGGFTITVARKYLQTRWGLPSGRQDGVLLVALSNEPAARLGSEADAKAFLDSMAQKYASIVGVDLSSAASASGAAGAGAAAGAAMIDAGALEEITKDHKVLARQQLQVLARYLKMDLDNGERKFLKEKDTVAELQAQLDYLNAELGEFFVNGVATSFSRKKARTFDSSWNWAKQSLLSLYFEIIHGVLKNVDREVVSEAINIMNRSNDALIKFMEYHISNTDETKGENYQLVKTLGEQLIENCKQVLDVDPVYKDVAKPTGPKTAIDKNGNITYSEEPREKVRKLSQYVQEMALGGPITKESQPTIEEDLTRVYKAISAQADKQDISSSTRVEFEKLYSDLMKFLESSKEIDPSQTTQLAGMDVEDALDKDSTKEVASLPNKSTISKTVSSTIPRETIPFLHLRKKTPAGDWKYDRQLSSLFLDGLEKAAFNGVTFKDKYVLITGAGKGSIGAEVLQGLLQGGAKVVVTTSRFSKQVTDYYQSIYAKYGAKGSTLIVVPFNQGSKQDVEALIEFIYDTEKNGGLGWDLDAIIPFAAIPEQGIELEHIDSKSEFAHRIMLTNILRMMGCVKKQKSARGIETRPAQVILPMSPNHGTFGGDGMYSESKLSLETLFNRWHSESWANQLTVCGAIIGWTRGTGLMSANNIIAEGIEKMGVRTFSQKEMAFNLLGLLTPEVVELCQKSPVMADLNGGLQFVPELKEFTAKLRKELVETSEVRKAVSIETALEHKVVNGNSADAAYAQVEIQPRANIQLDFPELKPYKQVKQIAPAELEGLLDLERVIVVTGFAEVGPWGSARTRWEMEAFGEFSLEGCVEMAWIMGFISYHNGNLKGRPYTGWVDSKTKEPVDDKDVKAKYETSILEHSGIRLIEPELFNGYNPEKKEMIQEVIVEEDLEPFEASKETAEQFKHQHGDKVDIFEIPETGEYSVKLLKGATLYIPKALRFDRLVAGQIPTGWNAKTYGISDDIISQVDPITLFVLVSVVEAFIASGITDPYEMYKYVHVSEVGNCSGSGMGGVSALRGMFKDRFKDEPVQNDILQESFINTMSAWVNMLLISSSGPIKTPVGACATSVESVDIGVETILSGKARICIVGGYDDFQEEGSFEFGNMKATSNTLEEFEHGRTPAEMSRPATTTRNGFMEAQGAGIQIIMQADLALKMGVPIYGIVAMAATATDKIGRSVPAPGKGILTTAREHHSSVKYASPNLNMKYRKRQLVTREAQIKDWVENELEALKLEAEEIPSEDQNEFLLERTREIHNEAESQLRAAQQQWGNDFYKRDPRIAPLRGALATYGLTIDDLGVASFHGTSTKANDKNESATINEMMKHLGRSEGNPVIGVFQKFLTGHPKGAAGAWMMNGALQILNSGIIPGNRNADNVDKILEQFEYVLYPSKTLKTDGVRAVSITSFGFGQKGGQAIVVHPDYLYGAITEDRYNEYVAKVSAREKSAYKFFHNGMIYNKLFVSKEHAPYTDELEEDVYLDPLARVSKDKKSGSLTFNSKNIQSKDSYINANTIETAKMIENMTKEKVSNGGVGVDVELITSINVENDTFIERNFTPQEIEYCSAQPSVQSSFAGTWSAKEAVFKSLGVKSLGGGAALKDIEIVRVNKNAPAVELHGNAKKAAEEAGVTDVKVSISHDDLQAVAVAVSTKK
notes: Fatty acid synthase subunit encoded by the FAS2 gene, S. cerevisiae; expressed from plasmid pMF319d (pRS313_FAS2); also called alpha (alpha wheel)
B1: the binding result in series [1] and in series [2] was “binds” in each case.
